US20040205843A1 (NORTH CAROLINA STATE UNIVERSITY, published 2004)
Substitutions are numbered along the chain they refer to.

Columns and labels:
Assay in all cases: GST co-purification from insect cells, immunoblot
GST-AL1(119-352) = target: T1, GST-AL1(119-352) (tomato golden mosaic virus (TGMV), UniProt P03567 119-352)
T1 construct: also called N-terminal truncation of AL1 fused to GST
T1 sequence: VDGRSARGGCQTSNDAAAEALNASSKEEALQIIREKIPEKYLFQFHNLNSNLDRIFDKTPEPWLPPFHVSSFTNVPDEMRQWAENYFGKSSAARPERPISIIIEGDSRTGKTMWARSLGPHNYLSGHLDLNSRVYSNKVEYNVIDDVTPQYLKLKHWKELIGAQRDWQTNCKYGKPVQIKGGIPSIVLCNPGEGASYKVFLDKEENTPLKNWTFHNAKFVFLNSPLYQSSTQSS

GST-AL1 119-180 = target: T2, GST-AL1 119-180 (tomato golden mosaic virus (TGMV), UniProt P03567 119-180)
T2 sequence: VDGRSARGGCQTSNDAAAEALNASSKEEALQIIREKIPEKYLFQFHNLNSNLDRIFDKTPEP

GST-AL1(1-180) = target: T3, GST-AL1(1-180) (tomato golden mosaic virus (TGMV), UniProt P03567 1-180)
T3 construct: also called C-terminal truncation of AL1 fused to GST
T3 sequence: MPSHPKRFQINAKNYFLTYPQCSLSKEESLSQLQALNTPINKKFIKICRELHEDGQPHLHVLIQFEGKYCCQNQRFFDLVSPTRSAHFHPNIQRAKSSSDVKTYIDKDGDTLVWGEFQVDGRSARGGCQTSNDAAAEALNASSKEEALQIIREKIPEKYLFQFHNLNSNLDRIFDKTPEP

[1] = target: T4, Full length GST-AL1 1-352 (tomato golden mosaic virus (TGMV), UniProt P03567 1-352)
T4 sequence: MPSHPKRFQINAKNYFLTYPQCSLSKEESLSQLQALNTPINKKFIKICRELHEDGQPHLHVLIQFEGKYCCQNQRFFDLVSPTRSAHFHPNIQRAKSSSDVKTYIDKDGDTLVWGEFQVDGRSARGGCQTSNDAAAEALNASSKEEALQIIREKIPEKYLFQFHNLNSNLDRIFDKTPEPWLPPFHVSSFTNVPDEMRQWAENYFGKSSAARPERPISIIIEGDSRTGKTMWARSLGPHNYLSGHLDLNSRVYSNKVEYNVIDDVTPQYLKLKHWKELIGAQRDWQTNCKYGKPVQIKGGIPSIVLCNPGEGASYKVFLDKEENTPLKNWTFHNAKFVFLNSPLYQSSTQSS

B1: AL1 EKY159 (Ala7), full length, untagged (other)
chain: T4 sequence with E157A, K158A, Y159A
- binding result (GST-AL1(119-352)): binds
- binding result (GST-AL1 119-180): no binding
- binding result (GST-AL1(1-180)): no binding
- binding result [1]: binds
